{"source": "patent US20230357367A1", "assay_in_all_cases": "cell-based or functional assay", "key": {"[1]": {"target": "spike (SARS-CoV-2, D614G) (SARS-CoV-2) (UniProt P0DTC2)"}, "[2]": {"target": "spike (SARS-CoV-2, D614G) (SARS-CoV-2) (UniProt P0DTC2)", "remark": "listed apart in the source"}, "[3]": {"target": "spike (SARS-CoV-2, D614G) (SARS-CoV-2) (UniProt P0DTC2)", "remark": "listed apart in the source"}, "[4]": {"target": "spike (SARS-CoV-2, D614G) (SARS-CoV-2) (UniProt P0DTC2)", "remark": "listed apart in the source"}, "[5]": {"target": "spike (SARS-CoV-2, D614G) (SARS-CoV-2) (UniProt P0DTC2)", "remark": "listed apart in the source"}, "[6]": {"target": "SARS-CoV-2 Omicron BA.4/5+K444T Spike on pseudovirus (SARS-CoV-2)"}, "[7]": {"target": "spike (SARS-CoV-2, BA.1.1 P1162S) (SARS-CoV-2)"}, "[8]": {"target": "spike (SARS-CoV-2, BA.5.8 P1162L) (SARS-CoV-2)"}}, "note": "Like-named read-outs stand apart in the source and are kept apart here.", "data": [{"substance": "sotrovimab VH/VL-huIgG1-LS (antibody)", "values": [{"measurement": "EC50, pseudovirus neutralization, Vero E6, with isotype", "setting": "[1]", "result": 14, "unit": "ng/mL"}, {"measurement": "EC90, pseudovirus neutralization, Vero E6, with isotype", "setting": "[2]", "result": 170, "unit": "ng/mL"}, {"measurement": "EC50, pseudovirus neutralization, Vero E6", "setting": "[3]", "result": 35.2, "unit": "ng/mL"}, {"measurement": "Emax, pseudovirus neutralization, Vero E6, with isotype (% neutralization)", "setting": "[4]", "result": 98.3}, {"measurement": "EC80, pseudovirus neutralization, Vero E6, with isotype", "setting": "[5]", "result": 69, "unit": "ng/mL"}]}, {"substance": "Sotrovimab VH/VL (human IgG1 molecule expressing the same variable regions of Sotrovimab) (antibody)", "values": [{"measurement": "Neutralization - IC50, pseudovirus", "setting": "[6]", "result": 304, "unit": "ng/mL"}]}, {"substance": "sotrovimab VH/VL-huIgG1 (antibody)", "values": [{"measurement": "EC50, pseudovirus neutralization, Vero E6", "setting": "[3]", "result": 27.9, "unit": "ng/mL"}]}, {"substance": "sotrovimab VH/VL-hamIgG2a (antibody)", "values": [{"measurement": "EC50, pseudovirus neutralization, Vero E6", "setting": "[3]", "result": 8.51, "unit": "ng/mL"}]}, {"substance": "bebtelovimab (antibody)", "values": [{"measurement": "EC50, pseudovirus neutralization, Vero E6, with isotype", "setting": "[1]", "result": 0.29, "unit": "ng/mL"}, {"measurement": "EC90, pseudovirus neutralization, Vero E6, with isotype", "setting": "[2]", "result": 11, "unit": "ng/mL"}, {"measurement": "EC50, pseudovirus neutralization", "setting": "[7]", "result": 0.12, "unit": "ng/mL"}, {"measurement": "EC80, pseudovirus neutralization", "setting": "[7]", "result": 1.4, "unit": "ng/mL"}, {"measurement": "EC90, pseudovirus neutralization", "setting": "[7]", "result": 6, "unit": "ng/mL"}, {"measurement": "Emax, pseudovirus neutralization (% neutralization)", "setting": "[7]", "result": 100}, {"measurement": "EC50, pseudovirus neutralization", "setting": "[8]", "result": 0.13, "unit": "ng/mL"}, {"measurement": "EC80, pseudovirus neutralization", "setting": "[8]", "result": 1.1, "unit": "ng/mL"}, {"measurement": "EC90, pseudovirus neutralization", "setting": "[8]", "result": 3.7, "unit": "ng/mL"}, {"measurement": "Emax, pseudovirus neutralization (% neutralization)", "setting": "[8]", "result": 99.9}, {"measurement": "EC50, pseudovirus neutralization", "setting": "[3]", "result": 0.57, "unit": "ng/mL"}, {"measurement": "EC50, pseudovirus neutralization, TMPRSS2-Vero E6, with isotype", "setting": "[3]", "result": 1.7, "unit": "ng/mL"}, {"measurement": "EC50, pseudovirus neutralization, Vero E6, with isotype", "setting": "[3]", "result": 0.64, "unit": "ng/mL"}, {"measurement": "EC80, pseudovirus neutralization", "setting": "[3]", "result": 4.9, "unit": "ng/mL"}, {"measurement": "EC80, pseudovirus neutralization, TMPRSS2-Vero E6, with isotype", "setting": "[3]", "result": 11, "unit": "ng/mL"}, {"measurement": "EC80, pseudovirus neutralization, Vero E6, with isotype", "setting": "[3]", "result": 2.7, "unit": "ng/mL"}, {"measurement": "EC90, pseudovirus neutralization", "setting": "[3]", "result": 18, "unit": "ng/mL"}, {"measurement": "EC90, pseudovirus neutralization, TMPRSS2-Vero E6, with isotype", "setting": "[3]", "result": 32, "unit": "ng/mL"}, {"measurement": "EC90, pseudovirus neutralization, Vero E6, with isotype", "setting": "[3]", "result": 6.1, "unit": "ng/mL"}, {"measurement": "Emax, pseudovirus neutralization (% neutralization)", "setting": "[3]", "result": 99.9}, {"measurement": "Emax, pseudovirus neutralization, TMPRSS2-Vero E6, with isotype (% neutralization)", "setting": "[3]", "result": 99.4}, {"measurement": "Emax, pseudovirus neutralization, Vero E6, with isotype (% neutralization)", "setting": "[3]", "result": 99.4}, {"measurement": "Emax, pseudovirus neutralization, Vero E6, with isotype (% neutralization)", "setting": "[4]", "result": 99.7}, {"measurement": "EC80, pseudovirus neutralization, Vero E6, with isotype", "setting": "[5]", "result": 2.9, "unit": "ng/mL"}]}, {"substance": "Bebtelovimab (antibody)", "values": [{"measurement": "Neutralization - IC50, pseudovirus", "setting": "[6]", "result": 1220, "unit": "ng/mL"}]}]}
